Data reported in US20250032632A1 (published 2025).

B1: ABF46 (antibody, V domains shown)
VH: EVKLVESGGGLVQPGGSLRLSCATSGFTFTDYYMSWVRQPPGKALEWLGFIRNKANGYTTEYSASVKGRFTISRDNSQSILYLQMDTLRAEDSATYYCARDNWFAYWGQGTLVTVSA
VL: DILMTQSPSSLTVSAGEKVTMSCKSSQSLLASGNQNNYLAWHQQKPGRSPKMLIIWASTRVSGVPDRFIGSGSGTDFTLTINSVQAEDLAVYYCQQSYSAPLTFGAGTKLELK
B2: G2ckc (humanized P3D12, VH-cdr + VL-cdr) (antibody, V domains shown)
VH: QVQLVQSGAEVKKPGASVKVSCKASGYTFTSYWMHWVKQAPGQGLDWIGYIKPSTDNTEYNQKFKDKATLTADKSTSTAYMELSSLRSEDTAVYYCARSYGNYPLMDYWGQGTTVTVSS
VL: QIVLTQSPATLSLSPGERATLSCSASSSVTSNYLYWYQQKPGSSPRLLIYSTSNLASGVPARFSGSGSGTSYTLTISRLEPEDFASYFCHQWSSYPPTFGSGTKLEIKR
notes: Humanized and isotype switched version of P3D12
B3: G2fkv (humanized P3D12, VH-fra + VL-ven) (antibody, V domains shown)
VH: QVQLQQSGAEVKKPGASVKVSCKASGYTFTSYWMHWVKQRPGQGLDWIGYIKPSTDNTEYNQKFKDRVTLTADKSTSTAYMQLSNLISEDTAVYYCARSYGNYPLMDYWGQGTSVTVSS
VL: QIVLTQSPATMSASPGERVTLSCSASSSVTSNYLYWYQQKPGSSPRLWIYSTSNLASGVPARFSGSGSGTSYTLTISRMEPEDAASYFCHQWSSYPPTFGSGTKLEIKR
notes: as for B2
B4: G2fkf (humanized P3D12, VH-fra + VL-fra) (antibody, V domains shown)
VH: QVQLQQSGAEVKKPGASVKVSCKASGYTFTSYWMHWVKQRPGQGLDWIGYIKPSTDNTEYNQKFKDRVTLTADKSTSTAYMQLSNLISEDTAVYYCARSYGNYPLMDYWGQGTSVTVSS
VL: QIVLTQSPAILSLSPGERATLSCSASSSVTSNYLYWYQQKPGSSPKLLIYSTSNLASGVPARFSGSGSGTSYTLTISSLEAEDAASYFCHQWSSYPPTFGSGTKLEIKR
notes: as for B2
B5: G2vka (humanized P3D12, VH-ven + VL-abb/sdr) (antibody, V domains shown)
VH: QVQLVQSGAEVAKPGASVKMSCKASGYTFTSYWMHWVKQAPGQGLDWIGYIKPSTDNTEYNQKFKDKATLTADKSTSTAYMQLSSLRSEDTAVYYCARSYGNYPLMDYWGQGTTVTVSS
VL: QIVLTQSPATLSLSPGERATLSCRASQSVTSNYLYWYQQKPGSSPRLLIYSTSNLASGVPARFSGSGSGTDYTLTISRLEPEDFASYFCHQWSSYPPTFGSGTKLEIKR
notes: as for B2
B6: G2vkc (humanized P3D12, VH-ven + VL-cdr) (antibody, V domains shown)
VH: QVQLVQSGAEVAKPGASVKMSCKASGYTFTSYWMHWVKQAPGQGLDWIGYIKPSTDNTEYNQKFKDKATLTADKSTSTAYMQLSSLRSEDTAVYYCARSYGNYPLMDYWGQGTTVTVSS
VL: QIVLTQSPATLSLSPGERATLSCSASSSVTSNYLYWYQQKPGSSPRLLIYSTSNLASGVPARFSGSGSGTSYTLTISRLEPEDFASYFCHQWSSYPPTFGSGTKLEIKR
notes: as for B2
B7: G2cka (humanized P3D12, VH-cdr + VL-abb/sdr) (antibody, V domains shown)
VH: QVQLVQSGAEVKKPGASVKVSCKASGYTFTSYWMHWVKQAPGQGLDWIGYIKPSTDNTEYNQKFKDKATLTADKSTSTAYMELSSLRSEDTAVYYCARSYGNYPLMDYWGQGTTVTVSS
VL: QIVLTQSPATLSLSPGERATLSCRASQSVTSNYLYWYQQKPGSSPRLLIYSTSNLASGVPARFSGSGSGTDYTLTISRLEPEDFASYFCHQWSSYPPTFGSGTKLEIKR
notes: as for B2
B8: G2fkc (humanized P3D12, VH-fra + VL-cdr) (antibody, V domains shown)
VH: QVQLQQSGAEVKKPGASVKVSCKASGYTFTSYWMHWVKQRPGQGLDWIGYIKPSTDNTEYNQKFKDRVTLTADKSTSTAYMQLSNLISEDTAVYYCARSYGNYPLMDYWGQGTSVTVSS
VL: QIVLTQSPATLSLSPGERATLSCSASSSVTSNYLYWYQQKPGSSPRLLIYSTSNLASGVPARFSGSGSGTSYTLTISRLEPEDFASYFCHQWSSYPPTFGSGTKLEIKR
notes: as for B2
B9: G2ckv (humanized P3D12, VH-cdr + VL-ven) (antibody, V domains shown)
VH: QVQLVQSGAEVKKPGASVKVSCKASGYTFTSYWMHWVKQAPGQGLDWIGYIKPSTDNTEYNQKFKDKATLTADKSTSTAYMELSSLRSEDTAVYYCARSYGNYPLMDYWGQGTTVTVSS
VL: QIVLTQSPATMSASPGERVTLSCSASSSVTSNYLYWYQQKPGSSPRLWIYSTSNLASGVPARFSGSGSGTSYTLTISRMEPEDAASYFCHQWSSYPPTFGSGTKLEIKR
notes: as for B2
B10: G2akc (humanized P3D12, VH-abb/sdr + VL-cdr) (antibody, V domains shown)
VH: QVQLVQSGAEVKKPGASVKVSCKASGYTFTSYWMHWVKQAPGQGLDWMGYIKPSTDNTEYAQKFQGRVTLTADKSTSTAYMELSSLRSEDTAVYYCARSYGNYPLMDYWGQGTTVTVSS
VL: QIVLTQSPATLSLSPGERATLSCSASSSVTSNYLYWYQQKPGSSPRLLIYSTSNLASGVPARFSGSGSGTSYTLTISRLEPEDFASYFCHQWSSYPPTFGSGTKLEIKR
notes: as for B2
B11: G2akf (humanized P3D12, VH-abb/sdr + VL-fra) (antibody, V domains shown)
VH: QVQLVQSGAEVKKPGASVKVSCKASGYTFTSYWMHWVKQAPGQGLDWMGYIKPSTDNTEYAQKFQGRVTLTADKSTSTAYMELSSLRSEDTAVYYCARSYGNYPLMDYWGQGTTVTVSS
VL: QIVLTQSPAILSLSPGERATLSCSASSSVTSNYLYWYQQKPGSSPKLLIYSTSNLASGVPARFSGSGSGTSYTLTISSLEAEDAASYFCHQWSSYPPTFGSGTKLEIKR
notes: as for B2
B12: G2vkv (humanized P3D12, VH-ven + VL-ven) (antibody, V domains shown)
VH: QVQLVQSGAEVAKPGASVKMSCKASGYTFTSYWMHWVKQAPGQGLDWIGYIKPSTDNTEYNQKFKDKATLTADKSTSTAYMQLSSLRSEDTAVYYCARSYGNYPLMDYWGQGTTVTVSS
VL: QIVLTQSPATMSASPGERVTLSCSASSSVTSNYLYWYQQKPGSSPRLWIYSTSNLASGVPARFSGSGSGTSYTLTISRMEPEDAASYFCHQWSSYPPTFGSGTKLEIKR
notes: as for B2
B13: G2aka (humanized P3D12, VH-abb/sdr + VL-abb/sdr) (antibody, V domains shown)
VH: QVQLVQSGAEVKKPGASVKVSCKASGYTFTSYWMHWVKQAPGQGLDWMGYIKPSTDNTEYAQKFQGRVTLTADKSTSTAYMELSSLRSEDTAVYYCARSYGNYPLMDYWGQGTTVTVSS
VL: QIVLTQSPATLSLSPGERATLSCRASQSVTSNYLYWYQQKPGSSPRLLIYSTSNLASGVPARFSGSGSGTDYTLTISRLEPEDFASYFCHQWSSYPPTFGSGTKLEIKR
notes: as for B2
B14: G2fka (humanized P3D12, VH-fra + VL-abb/sdr) (antibody, V domains shown)
VH: QVQLQQSGAEVKKPGASVKVSCKASGYTFTSYWMHWVKQRPGQGLDWIGYIKPSTDNTEYNQKFKDRVTLTADKSTSTAYMQLSNLISEDTAVYYCARSYGNYPLMDYWGQGTSVTVSS
VL: QIVLTQSPATLSLSPGERATLSCRASQSVTSNYLYWYQQKPGSSPRLLIYSTSNLASGVPARFSGSGSGTDYTLTISRLEPEDFASYFCHQWSSYPPTFGSGTKLEIKR
notes: as for B2
B15: G2akv (humanized P3D12, VH-abb/sdr + VL-ven) (antibody, V domains shown)
VH: QVQLVQSGAEVKKPGASVKVSCKASGYTFTSYWMHWVKQAPGQGLDWMGYIKPSTDNTEYAQKFQGRVTLTADKSTSTAYMELSSLRSEDTAVYYCARSYGNYPLMDYWGQGTTVTVSS
VL: QIVLTQSPATMSASPGERVTLSCSASSSVTSNYLYWYQQKPGSSPRLWIYSTSNLASGVPARFSGSGSGTSYTLTISRMEPEDAASYFCHQWSSYPPTFGSGTKLEIKR
notes: as for B2
B16: G2vkf (humanized P3D12, VH-ven + VL-fra) (antibody, V domains shown)
VH: QVQLVQSGAEVAKPGASVKMSCKASGYTFTSYWMHWVKQAPGQGLDWIGYIKPSTDNTEYNQKFKDKATLTADKSTSTAYMQLSSLRSEDTAVYYCARSYGNYPLMDYWGQGTTVTVSS
VL: QIVLTQSPAILSLSPGERATLSCSASSSVTSNYLYWYQQKPGSSPKLLIYSTSNLASGVPARFSGSGSGTSYTLTISSLEAEDAASYFCHQWSSYPPTFGSGTKLEIKR
notes: as for B2
B17: Chimeric P3D12 (antibody, V domains shown)
VH: QVQLQQSGAELAKPGASVKMSCRASGYTFTSYWMHWVKQRPGQGLDWIGYIKPSTDNTEYNQKFKDKATLTADKSSSTAYMQLSSLTSEDSAVYYCARSYGNYPLMDYWGQGTSVTVSS
VL: QIVLTQSPAIMSASPGEKVTLTCSASSSVTSNYLYWYQQKPGSSPKLWIYSTSNLASGVPARFSGSGSGTSYSLTISSMEAEDAASYFCHQWSSYPPTFGSGTKLEIKR
notes: Mouse P3D12 variable regions with human constant regions

What was measured:
[1] = molecular target: T1, human cMET-Fc fusion protein (extracellular domain of human cMET fused to human Fc) (human, UniProt P08581 25-932); experiment: SPR with hMet-Fc
T1 construct: Mature cMET is cleaved into alpha and beta subunits; also called hMET-Fc; hMet-Fc
T1 sequence (P08581 25-932): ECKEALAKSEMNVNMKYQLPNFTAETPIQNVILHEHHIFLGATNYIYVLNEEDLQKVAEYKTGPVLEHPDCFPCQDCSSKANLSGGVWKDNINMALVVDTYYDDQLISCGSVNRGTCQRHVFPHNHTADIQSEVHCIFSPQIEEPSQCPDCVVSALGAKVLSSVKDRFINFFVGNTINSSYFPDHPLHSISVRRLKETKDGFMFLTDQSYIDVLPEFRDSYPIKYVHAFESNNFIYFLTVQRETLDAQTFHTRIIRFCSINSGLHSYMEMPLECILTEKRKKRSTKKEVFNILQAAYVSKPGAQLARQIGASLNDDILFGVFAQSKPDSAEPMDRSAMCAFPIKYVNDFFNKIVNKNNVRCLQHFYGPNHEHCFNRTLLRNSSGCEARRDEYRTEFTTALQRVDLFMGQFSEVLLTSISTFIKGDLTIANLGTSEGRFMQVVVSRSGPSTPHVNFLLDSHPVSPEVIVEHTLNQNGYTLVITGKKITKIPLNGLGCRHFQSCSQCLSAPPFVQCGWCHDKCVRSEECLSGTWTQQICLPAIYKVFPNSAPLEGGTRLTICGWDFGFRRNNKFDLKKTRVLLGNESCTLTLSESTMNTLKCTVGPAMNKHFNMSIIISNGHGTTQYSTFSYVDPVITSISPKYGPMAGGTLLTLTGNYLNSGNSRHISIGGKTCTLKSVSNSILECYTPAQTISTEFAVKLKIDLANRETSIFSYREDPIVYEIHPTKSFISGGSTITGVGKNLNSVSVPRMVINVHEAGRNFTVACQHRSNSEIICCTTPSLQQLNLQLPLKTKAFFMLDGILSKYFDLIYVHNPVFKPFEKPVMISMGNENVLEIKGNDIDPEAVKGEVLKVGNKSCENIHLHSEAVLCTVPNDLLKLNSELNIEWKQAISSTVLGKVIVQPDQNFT

[2] = molecular target: T2, human cMET (ELISA antigen) (human, UniProt P08581 25-932, limits assumed); experiment: ELISA on human cMET, relative to parental P3D12
T2 construct: also called hMET
T2 sequence (P08581 25-932 limits assumed): as the sequence (P08581 25-932) above

rat cMET-Fc = molecular target: T3, rat cMET-Fc (rat, UniProt P97523 25-935); experiment: SPR, rMET-Fc
T3 construct: Construct named only as rMET-Fc; also called rMET-Fc; not shown: Fc part
T3 sequence (P97523 25-935 limits assumed): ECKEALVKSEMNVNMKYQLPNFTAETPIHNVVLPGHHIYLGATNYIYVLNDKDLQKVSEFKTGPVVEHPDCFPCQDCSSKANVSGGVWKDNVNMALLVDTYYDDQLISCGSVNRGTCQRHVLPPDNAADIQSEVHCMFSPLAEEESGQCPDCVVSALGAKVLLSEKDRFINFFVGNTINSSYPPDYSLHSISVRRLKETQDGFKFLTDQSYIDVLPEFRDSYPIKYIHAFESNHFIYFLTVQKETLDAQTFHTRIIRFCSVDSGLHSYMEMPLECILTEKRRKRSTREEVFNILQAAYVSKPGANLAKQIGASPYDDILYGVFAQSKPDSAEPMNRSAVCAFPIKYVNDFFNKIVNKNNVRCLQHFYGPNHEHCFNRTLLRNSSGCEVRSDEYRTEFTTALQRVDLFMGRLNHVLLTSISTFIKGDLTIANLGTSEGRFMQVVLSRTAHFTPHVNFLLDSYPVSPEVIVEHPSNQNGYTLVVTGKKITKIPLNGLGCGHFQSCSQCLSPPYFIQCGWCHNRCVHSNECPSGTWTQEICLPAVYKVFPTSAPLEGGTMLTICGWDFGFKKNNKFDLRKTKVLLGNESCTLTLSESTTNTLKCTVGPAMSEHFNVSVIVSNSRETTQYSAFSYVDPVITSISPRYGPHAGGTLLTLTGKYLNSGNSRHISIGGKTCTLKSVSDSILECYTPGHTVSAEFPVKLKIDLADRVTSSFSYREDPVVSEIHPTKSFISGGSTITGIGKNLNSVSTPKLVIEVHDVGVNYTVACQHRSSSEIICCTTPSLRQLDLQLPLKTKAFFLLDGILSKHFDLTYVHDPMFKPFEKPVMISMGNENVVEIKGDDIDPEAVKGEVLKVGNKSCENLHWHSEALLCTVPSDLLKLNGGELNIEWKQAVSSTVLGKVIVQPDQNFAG

[3] = molecular target: T1, human cMET-Fc fusion protein …; experiment: SPR, hMET-Fc
rat cMET (ELISA antigen) = molecular target: T4, rat cMET (ELISA antigen) (rat, UniProt P97523 25-935, limits assumed); experiment: ELISA on rat cMET, relative to parental P3D12
T4 construct: also called rMET
T4 sequence (P97523 25-935 limits assumed): as above

Binder	Kd [1]	ELISA hMET vs parental [2]	Kd (rat cMET-Fc)	Kd [3]	ELISA rMET vs parental (rat cMET (ELISA antigen))
B1	0.7 nM	–	–	–	–
B2	–	1 fold vs parental	31 nM	0.9 nM	2 fold vs parental
B3	–	1.7 fold vs parental	–	–	1.2 fold vs parental
B4	–	1.7 fold vs parental	30 nM	0.4 nM	1.4 fold vs parental
B5	–	0.9 fold vs parental	–	–	2.7 fold vs parental
B6	–	1.1 fold vs parental	–	–	1.9 fold vs parental
B7	–	1.3 fold vs parental	29 nM	0.4 nM	2.7 fold vs parental
B8	–	1.7 fold vs parental	–	–	2.3 fold vs parental
B9	–	1.1 fold vs parental	–	–	1 fold vs parental
B10	–	1.3 fold vs parental	38 nM	0.7 nM	0.7 fold vs parental
B11	–	1 fold vs parental	23 nM	0.6 nM	0.5 fold vs parental
B12	–	1.6 fold vs parental	–	–	1.6 fold vs parental
B13	–	0.9 fold vs parental	26 nM	0.9 nM	1.1 fold vs parental
B14	–	1.8 fold vs parental	–	–	3.8 fold vs parental
B15	–	1.6 fold vs parental	–	–	1.3 fold vs parental
B16	–	1.1 fold vs parental	8 nM	0.3 nM	1 fold vs parental
B17	–	–	30 nM	0.7 nM	–
